Assay results: patent US20220064321A1

What was measured:
[1] = target: CD16a on effector cells NK92MI-CD16a (UniProt P08637); test: cell-based or functional assay
[2] = target: FcγRIIIa(V158) (Sino Biological Inc, 10389-H08C1) (UniProt P08637); test: binding ELISA; His-tagged FcγRIIIa captured by anti-His antibody, IgG pre-complexed with goat F(ab')2 anti-human-κ, HRP anti-human F(ab')2 detection
Sequence of FcγRIIIa(V158) (Sino Biological Inc, 10389-H08C1) (P08637 17-208 F176V limits assumed): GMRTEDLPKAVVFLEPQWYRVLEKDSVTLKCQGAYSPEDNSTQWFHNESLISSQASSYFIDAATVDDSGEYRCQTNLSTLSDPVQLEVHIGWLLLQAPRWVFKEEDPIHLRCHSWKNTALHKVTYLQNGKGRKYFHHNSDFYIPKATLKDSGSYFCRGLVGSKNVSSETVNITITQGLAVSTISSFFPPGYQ

Sequence of CD16a on effector cells NK92MI-CD16a (P08637 17-254 limits assumed): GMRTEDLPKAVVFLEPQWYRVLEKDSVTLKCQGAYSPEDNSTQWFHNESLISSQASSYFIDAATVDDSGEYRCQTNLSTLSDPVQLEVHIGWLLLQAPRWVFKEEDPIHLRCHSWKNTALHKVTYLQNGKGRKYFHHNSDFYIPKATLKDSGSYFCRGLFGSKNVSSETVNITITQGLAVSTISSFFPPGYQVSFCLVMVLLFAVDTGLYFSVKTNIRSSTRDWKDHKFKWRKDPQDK

ADCC Target cell: Daudi, EC50 [1]: 4.53 ng/mL | ADCC Target cell: Raji, EC50 [1]: 0.345 ng/mL | EC50 [2]: 194 ng/mL
Substance: RITUXAN® (rituximab) (antibody)
